In paper doi:10.1101/2021.03.09.434688:
“And” between values parts separate entries of the source, which are not always exact repeats. Identical values can stand only once.

Legend:
[1] = molecular target: fluorophore-labeled core peptide Fl_PsnA2(28-38); experiment: fluorescence polarisation
[2] = molecular target: MP variants with one or two Glu-to-Ala mutations; experiment: fluorescence polarisation
[3] = molecular target: fluorophore-labeled minimal precursor peptide Fl_PsnA2(14-38); experiment: fluorescence polarisation
[4] = molecular target: PsnB; experiment: crystal structure

Row | Kd [1] [µM] | fold reduction of the affinity against MP [2] | fold enhancement of the interaction with ADP (1 mM) against no nucleotide [3] [fold] | fold enhancement of the interaction with AMPPNP (1 mM) against no nucleotide [3] [fold] | fold tighter binding than the LP (Fl LP) [3] [fold] | stoichiometry N [4] | Substance
1 | > 100 | 10 fold and 4 fold | 9 | 2 | 6 | 2 | PsnB (enzyme)
2 | 11 |  |  |  |  |  | leader-fused PsnB (enzyme)
